We go through seven molecules from US20250152742A1, “COMPOSITIONS AND METHODS FOR NEUROLOGICAL DISEASES” (Trames Bio, Inc., priority 2022, published 2025).

For this assay, the system named is rat DRG neurons. As to the kind of experiment: Rheobase shift / evoked action potentials, rat DRG neurons (current clamp). It counts as cell-based. Conditions: for Rheobase Shift; Rat DRG Neurons, Baseline: no ligand, neurons expressing the receptor; for Rheobase Shift; Rat DRG Neurons, +TC-5619 @ EC90: ligand TC-5619 at EC90. The procedure:
Using whole cell manual patch clamp electrophysiology in HEK293 cells, rat DRG neurons and rat hippocampal neurons, the EC50 of the various engineered receptors disclosed herein to Ach and non-native ligands was measured using the Hill equation with peak current measurements from escalating doses of ligand. The rheobase shift was also measured in rat DRG neurons, which reflects the efficacy of the receptors. To calculate the rheobase, first, the amount of current that can produce an action potential was determined. Then the ligand was added, followed by a step wise increase in the current injected up to 700 pA.
DRG rheobase experiments were performed in current clamp mode using a potassium-based internal solution containing: 100 mM potassium D-gluconate, 28 mM potassium chloride, 1 mM magnesium chloride hexahydrate, 5 mM magnesium ATP, 10 mM HEPES, and 0.5 mM EGTA (pH=7.2 with potassium hydroxide, osmolarity=290-295 mOsm, calculated liquid junction potential=−13.5 mV). To measure DRG input resistance and rheobase, 500 ms current steps (−200 pA to 700 pA) were applied the membrane in the presence and absence of a compound. No holding current was applied to the membrane for cells included in the final datasets. Data were acquired at 10 kHz, with Bessel filter at 2 kHz and series resistance compensation at 100%. Rheobase was defined as the smallest depolarizing current injection required to cause an action potential to fire in the cell. In a subset of cells, the rheobase was ambiguous, since the action potential appeared to be graded in amplitude. In these cases, a […] of the trace clarified the rheobase. Input resistance was measured from the negative current injections, calculated as the difference in membrane potential at steady state divided by the current injection amplitude and then averaged across the four negative current steps for each recording. Resting membrane potential was measured from the first 100 ms of each sweep, averaged for each recording, and corrected for liquid junction potential. One-way ANOVA with multiple comparisons was used to test for significance of difference in rheobase and input resistance between baseline, drug, and wash conditions.
DRG neurons: DRG rheobase experiments were performed in current clamp mode using a potassium-based internal solution containing (in mM): 100 potassium D-gluconate (G4500), 28 potassium chloride (P9333), 1 magnesium chloride hexahydrate (M2670), 5 magnesium ATP (A9187), 10 HEPES (54457), and 0.5 EGTA (3777) (pH=7.2 with potassium hydroxide, osmolarity=290-295 mOsm, calculated liquid junction potential=−13.5 mV). To measure DRG input resistance and rheobase, 500 ms current steps (−200 pA to 700 pA) were applied the membrane (−400 pA to 700 pA in an early version of the protocol) in the presence and absence of a compound. No holding current was applied to the membrane for cells included in the final datasets. Data were acquired at 10 kHz, with Bessel filter at 2 kHz and series resistance compensation at 100%. Rheobase was defined as the smallest depolarizing current injection required to cause an action potential to fire in the cell. In a subset of cells, the rheobase was ambiguous, since the action potential appeared to be graded in amplitude. In these cases, a […] of the trace clarified the rheobase. Input resistance was measured from the negative current injections, calculated as the difference in membrane potential at steady state divided by the current injection amplitude and then averaged across the four negative current steps for each recording. Resting membrane potential was measured from the first 100 ms of each sweep, averaged for each recording, and corrected for liquid junction potential. One-way ANOVA with multiple comparisons was used to test for significance of difference in rheobase and input resistance between baseline, drug, and wash conditions.

B1: CODA806: engineered receptor: Y115D, L131Q in SEQ ID NO: 33 (Chemogenic receptor-11) (protein)
chain: MRCSPGGVWLALAASLLHVSLQGEFQRKLYKELVKNYNPLERPVANDSQPLTVYFSLSLLQIMDVDEKNQVLTTNIWLQMSWTDHYLQWNVSEYPGVKTVRFPDGQIWKPDILLDNSADERFDATFHTNVQVNSSGHCQYLPPGIFKSSCPMDLKNFPMDVQTCKLKFGSWSYGGWSLDLQMQEADISGYIPNGEWDLVGIPGKRSERFYECCKEPYPDVTFTVTMRRRMGYYLIQMYIPSLLIVILSWISFWINMDAAPARVGLGITTVLTMTTQSSGSRASLPKVSYVKAIDIWMAVCLLFVFSALLEYAAVNFVSRQHKELLRFRRKRRHHKSPMLNLFQEDEAGEGRFNFSAYGMGPACLQAKDGISVKGANNSNTTNPPPAPSKSPEEMRKLFIQRAKKIDKISRIGFPMAFLIFNMFYWIIYKIVRREDVHNQ
modifications: synthetic sequence of chimeric LGIC
For B1, the “Rheobase Shift; Rat DRG Neurons, Baseline” value (“Rheobase Shift … Baseline” below) is on record as 163 ± 28 pA. Also, for the setting “Acetylcholine at 3.0 mM, transduced neurons, n=4, FIG. 4B”, the “effect on evoked action potentials” value was “no effect”. Besides, where the note is “RG-3487 (SA-2) at 3 μM, transduced rat DRG neurons, FIG. 4A”, the “current injection evoked action potentials” value is “reversibly inhibits current injection evoked action potentials”. Where the note is “RG-3487 (SA-2) at 3 μM, transduced rat DRG neurons, n=7”, the “increase in the current required to elicit action potentials” value was roughly 3 x. For the same molecule, the “Rheobase Shift; Rat DRG Neurons, Facinicline/RG-3487 @ EC90” value (ligand Facinicline/RG-3487 at EC90) stood at 625 ± 35 pA.

B2: CODA1054: engineered receptor: R101M, L131F in SEQ ID NO: 33 (protein)
chain: MRCSPGGVWLALAASLLHVSLQGEFQRKLYKELVKNYNPLERPVANDSQPLTVYFSLSLLQIMDVDEKNQVLTTNIWLQMSWTDHYLQWNVSEYPGVKTVMFPDGQIWKPDILLYNSADERFDATFHTNVFVNSSGHCQYLPPGIFKSSCPMDLKNFPMDVQTCKLKFGSWSYGGWSLDLQMQEADISGYIPNGEWDLVGIPGKRSERFYECCKEPYPDVTFTVTMRRRMGYYLIQMYIPSLLIVILSWISFWINMDAAPARVGLGITTVLTMTTQSSGSRASLPKVSYVKAIDIWMAVCLLFVFSALLEYAAVNFVSRQHKELLRFRRKRRHHKSPMLNLFQEDEAGEGRFNFSAYGMGPACLQAKDGISVKGANNSNTTNPPPAPSKSPEEMRKLFIQRAKKIDKISRIGFPMAFLIFNMFYWIIYKIVRREDVHNQ
modifications: synthetic sequence of chimeric LGIC
For the molecule B2, the “Rheobase Shift … Baseline” value was determined as 105 ± 13 pA and the “Rheobase Shift; Rat DRG Neurons, +TC-5619 @ EC90” value (“Rheobase Shift … +TC-5619 @ EC90” for short) was found to be 673 ± 27 pA.

B3: CODA1025: engineered receptor: R101F, L131G in SEQ ID NO: 33 (protein)
chain: MRCSPGGVWLALAASLLHVSLQGEFQRKLYKELVKNYNPLERPVANDSQPLTVYFSLSLLQIMDVDEKNQVLTTNIWLQMSWTDHYLQWNVSEYPGVKTVFFPDGQIWKPDILLYNSADERFDATFHTNVGVNSSGHCQYLPPGIFKSSCPMDLKNFPMDVQTCKLKFGSWSYGGWSLDLQMQEADISGYIPNGEWDLVGIPGKRSERFYECCKEPYPDVTFTVTMRRRMGYYLIQMYIPSLLIVILSWISFWINMDAAPARVGLGITTVLTMTTQSSGSRASLPKVSYVKAIDIWMAVCLLFVFSALLEYAAVNFVSRQHKELLRFRRKRRHHKSPMLNLFQEDEAGEGRFNFSAYGMGPACLQAKDGISVKGANNSNTTNPPPAPSKSPEEMRKLFIQRAKKIDKISRIGFPMAFLIFNMFYWIIYKIVRREDVHNQ
modifications: synthetic sequence of chimeric LGIC
B3: the “Rheobase Shift … Baseline” value is listed as 140 ± 19 pA and the “Rheobase Shift … +TC-5619 @ EC90” value amounted to 560 ± 72 pA.

B4: CODA1039: engineered receptor: Y115E, Y210W in SEQ ID NO: 33 (protein)
chain: MRCSPGGVWLALAASLLHVSLQGEFQRKLYKELVKNYNPLERPVANDSQPLTVYFSLSLLQIMDVDEKNQVLTTNIWLQMSWTDHYLQWNVSEYPGVKTVRFPDGQIWKPDILLENSADERFDATFHTNVLVNSSGHCQYLPPGIFKSSCPMDLKNFPMDVQTCKLKFGSWSYGGWSLDLQMQEADISGYIPNGEWDLVGIPGKRSERFWECCKEPYPDVTFTVTMRRRMGYYLIQMYIPSLLIVILSWISFWINMDAAPARVGLGITTVLTMTTQSSGSRASLPKVSYVKAIDIWMAVCLLFVFSALLEYAAVNFVSRQHKELLRFRRKRRHHKSPMLNLFQEDEAGEGRFNFSAYGMGPACLQAKDGISVKGANNSNTTNPPPAPSKSPEEMRKLFIQRAKKIDKISRIGFPMAFLIFNMFYWIIYKIVRREDVHNQ
modifications: synthetic sequence of chimeric LGIC
B4: the “Rheobase Shift … Baseline” value came to 88 ± 9 pA and the “Rheobase Shift … +TC-5619 @ EC90” value stood at 453 ± 58 pA.

B5: CODA1045: engineered receptor: R101W, Y210V in SEQ ID NO: 33 (protein)
chain: MRCSPGGVWLALAASLLHVSLQGEFQRKLYKELVKNYNPLERPVANDSQPLTVYFSLSLLQIMDVDEKNQVLTTNIWLQMSWTDHYLQWNVSEYPGVKTVWFPDGQIWKPDILLYNSADERFDATFHTNVLVNSSGHCQYLPPGIFKSSCPMDLKNFPMDVQTCKLKFGSWSYGGWSLDLQMQEADISGYIPNGEWDLVGIPGKRSERFVECCKEPYPDVTFTVTMRRRMGYYLIQMYIPSLLIVILSWISFWINMDAAPARVGLGITTVLTMTTQSSGSRASLPKVSYVKAIDIWMAVCLLFVFSALLEYAAVNFVSRQHKELLRFRRKRRHHKSPMLNLFQEDEAGEGRFNFSAYGMGPACLQAKDGISVKGANNSNTTNPPPAPSKSPEEMRKLFIQRAKKIDKISRIGFPMAFLIFNMFYWIIYKIVRREDVHNQ
modifications: synthetic sequence of chimeric LGIC
For B5, the “Rheobase Shift … Baseline” value stood at 141 ± 22 pA and the “Rheobase Shift … +TC-5619 @ EC90” value worked out at 700 ± 0 pA.

B6: CODA1048: engineered receptor: R101F, Y210F in SEQ ID NO: 33 (protein)
chain: MRCSPGGVWLALAASLLHVSLQGEFQRKLYKELVKNYNPLERPVANDSQPLTVYFSLSLLQIMDVDEKNQVLTTNIWLQMSWTDHYLQWNVSEYPGVKTVFFPDGQIWKPDILLYNSADERFDATFHTNVLVNSSGHCQYLPPGIFKSSCPMDLKNFPMDVQTCKLKFGSWSYGGWSLDLQMQEADISGYIPNGEWDLVGIPGKRSERFFECCKEPYPDVTFTVTMRRRMGYYLIQMYIPSLLIVILSWISFWINMDAAPARVGLGITTVLTMTTQSSGSRASLPKVSYVKAIDIWMAVCLLFVFSALLEYAAVNFVSRQHKELLRFRRKRRHHKSPMLNLFQEDEAGEGRFNFSAYGMGPACLQAKDGISVKGANNSNTTNPPPAPSKSPEEMRKLFIQRAKKIDKISRIGFPMAFLIFNMFYWIIYKIVRREDVHNQ
modifications: synthetic sequence of chimeric LGIC
For B6, the “Rheobase Shift … Baseline” value is 120 ± 19 pA and the “Rheobase Shift … +TC-5619 @ EC90” value turned out to be 590 ± 46 pA.

B7: CODA1027: engineered receptor: R101F, L131D in SEQ ID NO: 33 (protein)
chain: MRCSPGGVWLALAASLLHVSLQGEFQRKLYKELVKNYNPLERPVANDSQPLTVYFSLSLLQIMDVDEKNQVLTTNIWLQMSWTDHYLQWNVSEYPGVKTVFFPDGQIWKPDILLYNSADERFDATFHTNVDVNSSGHCQYLPPGIFKSSCPMDLKNFPMDVQTCKLKFGSWSYGGWSLDLQMQEADISGYIPNGEWDLVGIPGKRSERFYECCKEPYPDVTFTVTMRRRMGYYLIQMYIPSLLIVILSWISFWINMDAAPARVGLGITTVLTMTTQSSGSRASLPKVSYVKAIDIWMAVCLLFVFSALLEYAAVNFVSRQHKELLRFRRKRRHHKSPMLNLFQEDEAGEGRFNFSAYGMGPACLQAKDGISVKGANNSNTTNPPPAPSKSPEEMRKLFIQRAKKIDKISRIGFPMAFLIFNMFYWIIYKIVRREDVHNQ
modifications: synthetic sequence of chimeric LGIC
For the molecule B7, the “Rheobase Shift … Baseline” value was found to be 100 ± 23 pA and the “Rheobase Shift … +TC-5619 @ EC90” value is on record as 638 ± 63 pA.
